Measurements as given in IntAct's records for PubMed 19509288.

B1: ATP-dependent RNA helicase SUPV3L1, mitochondrial (Homo sapiens), Q8IYB8 (parent)
chain: MSFSRALLWARLPAGRQAGHRAAICSALRPHFGPFPGVLGQVSVLATASSSASGGSKIPNTSLFVPLTVKPQGPSADGDVGAELTRPLDKNEVKKVLDKFYKRKEIQKLGADYGLDARLFHQAFISFRNYIMQSHSLDVDIHIVLNDICFGAAHADDLFPFFLRHAKQIFPVLDCKDDLRKISDLRIPPNWYPDARAMQRKIIFHSGPTNSGKTYHAIQKYFSAKSGVYCGPLKLLAHEIFEKSNAAGVPCDLVTGEERVTVQPNGKQASHVSCTVEMCSVTTPYEVAVIDEIQMIRDPARGWAWTRALLGLCAEEVHLCGEPAAIDLVMELMYTTGEEVEVRDYKRLTPISVLDHALESLDNLRPGDCIVCFSKNDIYSVSRQIEIRGLESAVIYGSLPPGTKLAQAKKFNDPNDPCKILVATDAIGMGLNLSIRRIIFYSLIKPSINEKGERELEPITTSQALQIAGRAGRFSSRFKEGEVTTMNHEDLSLLKEILKRPVDPIRAAGLHPTAEQIEMFAYHLPDATLSNLIDIFVDFSQVDGQYFVCNMDDFKFSAELIQHIPLSLRVRYVFCTAPINKKQPFVCSSLLQFARQYSRNEPLTFAWLRRYIKWPLLPPKNIKDLMDLEAVHDVLDLYLWLSYRFMDMFPDASLIRDLQKELDGIIQDGVHNITKLIKMSETHKLLNLEGFPSGSQSRLSGTLKSQARRTRGTKALGSKATEPPSPDAGELSLASRLVQQGLLTPDMLKQLEKEWMTQQTEHNKEKTESGTHPKGTRRKKKEPDSD
partner: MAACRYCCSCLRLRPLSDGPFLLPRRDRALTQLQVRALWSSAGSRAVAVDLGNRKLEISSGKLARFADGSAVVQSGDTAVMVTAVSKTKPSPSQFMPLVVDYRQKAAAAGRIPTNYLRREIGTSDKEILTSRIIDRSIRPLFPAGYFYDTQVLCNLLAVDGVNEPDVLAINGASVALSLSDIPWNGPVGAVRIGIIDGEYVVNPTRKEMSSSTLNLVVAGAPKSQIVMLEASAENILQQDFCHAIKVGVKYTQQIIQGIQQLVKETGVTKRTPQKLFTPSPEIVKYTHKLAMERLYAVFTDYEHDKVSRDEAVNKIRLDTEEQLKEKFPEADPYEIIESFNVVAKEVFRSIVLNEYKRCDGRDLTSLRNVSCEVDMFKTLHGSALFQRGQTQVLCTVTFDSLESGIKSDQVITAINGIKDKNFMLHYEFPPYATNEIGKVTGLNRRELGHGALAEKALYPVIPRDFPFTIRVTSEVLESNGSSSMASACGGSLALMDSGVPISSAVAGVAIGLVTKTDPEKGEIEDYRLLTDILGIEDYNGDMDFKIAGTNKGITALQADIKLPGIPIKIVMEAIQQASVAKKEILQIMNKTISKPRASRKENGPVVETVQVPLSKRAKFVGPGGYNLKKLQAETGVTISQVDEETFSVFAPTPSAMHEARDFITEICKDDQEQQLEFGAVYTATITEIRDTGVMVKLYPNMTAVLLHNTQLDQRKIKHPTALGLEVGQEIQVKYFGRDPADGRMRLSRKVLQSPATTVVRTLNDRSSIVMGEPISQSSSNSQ

Variants of: B1
Conditions: with pnpt1_human PNPT1, Q8TCS8

| Variant | effect of a mutation on the interaction |
| --- | --- |
| K213A | with no effect |
